Patent US20260092111A1 (MOR RESEARCH APPLICATIONS, published 2026)
“And” between values parts separate entries of the source, which are not always exact repeats. Equal entries are not always repeated.

Experiments:
[1] = biological target: T1, extracellular domain (ECD) of human TREM2 (human, UniProt Q9NZC2 19-174); experiment: SPR (Biacore)
T1 construct: also called Human TREM2-ECD; human TREM2-extracellular domain (ECD)
T1 sequence: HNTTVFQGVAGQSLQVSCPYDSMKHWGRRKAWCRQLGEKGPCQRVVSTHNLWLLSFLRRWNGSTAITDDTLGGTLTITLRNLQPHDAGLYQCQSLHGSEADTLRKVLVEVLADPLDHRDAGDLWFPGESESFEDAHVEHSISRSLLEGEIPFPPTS
Excerpt: (§1) A Surface Plasmon Resonance (Biacore) assay was used to assess the binding of humanized CGX101 (hCGX101), an IgG4 antibody, to the extracellular domain of human TREM2 and to a protein containing the extracellular domain of mouse TREM2 fused to Fc.

[2] = biological target: T2, protein containing the extracellular domain of mouse TREM2 fused to Fc (mouse, UniProt Q99NH8 19-171); experiment: SPR (Biacore)
T2 construct: extracellular domain; also called Mouse TREM2-Fc; not shown: Fc
T2 sequence (looked up): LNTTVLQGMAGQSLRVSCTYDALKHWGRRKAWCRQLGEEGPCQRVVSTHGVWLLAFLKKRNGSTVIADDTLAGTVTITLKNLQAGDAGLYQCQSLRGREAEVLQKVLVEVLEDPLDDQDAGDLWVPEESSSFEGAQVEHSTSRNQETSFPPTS
Excerpt: as §1

Kd [1]: 5.74 nM and 5.73 nM
koff [1]: 0.000715 s⁻¹
kon [1]: 125000 M⁻¹ s⁻¹
Kd [2]: 18.6 nM
koff [2]: 0.00106 s⁻¹
kon [2]: 57000 M⁻¹ s⁻¹
B1: humanized CGX101 (hCGX101), an IgG4 antibody (antibody, V domains shown)
VH: EVQLVQSGAEVKKPGESLKISCKGSGYTFTDYNIHWVRQMPGKGLEWMGYIYPKNGGTGYTQKFKSQVTISVDNSISTAYLQWSSLKASDTAMYYCARRTARASWFAFWGQGTLVTVSS
VL: DIVMTQSPATLSVSPGERATLSCKSSQSLLYSSNQKNYLAWYQQKPGQAPRVLIYWASTRESGIPARFSGSGSGTEFTLTISSLQSEDFAVYYCQQYYNYPFTFGQGTKLEIK
notes: also called hIgG4; huIgG4
